Reference: the supplement of paper PMC9112550, “Optimization of the antimicrobial peptide Bac7 by deep mutational scanning” (BMC Biology, 2022)

System: Escherichia coli TOP10
Assay: shrunken log2 fold change of peptide-encoding DNA abundance (4.5 h post-induction vs induction); higher = less antimicrobial activity (less host growth inhibition)
Conditions: time post-induction: 4.5 h; library: site-saturation at positions 5, 18, 19, 20
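Also: peptides expressed intracellularly from a pBAD plasmid library in pooled LB shake-flask culture, induced with 0.3% L-arabinose, DNA abundance read by NGS, three biological replicates, DESeq2 with apeglm shrinkage.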

| Sequence | shrunken log2 fold change |
| --- | --- |
| RRIRQRPPRLPRPRPRPMAHPRP | 0.00446 |
| RRIRGRPPRLPRPRPRPHDMPRP | -0.204 |
| RRIRNRPPRLPRPRPRPWCWPRP | -0.0119 |
| RRIRERPPRLPRPRPRPIREPRP | 0.0256 |
| RRIRPRPPRLPRPRPRPQEEPRP | 0.0679 |
| RRIRPRPPRLPRPRPRPYRLPRP | -0.136 |
| RRIRERPPRLPRPRPRPSWFPRP | -0.589 |
| RRIRERPPRLPRPRPRPCPEPRP | -0.324 |
| RRIRERPPRLPRPRPRPPLFPRP | 0.124 |
| RRIRNRPPRLPRPRPRPKFVPRP | -0.0126 |
| RRIRRRPPRLPRPRPRPLKMPRP | 0.156 |
| RRIRGRPPRLPRPRPRPPEGPRP | 1.15 |
| RRIRIRPPRLPRPRPRPDEPPRP | 0.115 |
| RRIRERPPRLPRPRPRPRALPRP | 0.0317 |
| RRIRCRPPRLPRPRPRPRNWPRP | 0.366 |
| RRIRDRPPRLPRPRPRPYKPPRP | -0.0448 |
| RRIRGRPPRLPRPRPRPEVNPRP | 1.62 |
| RRIRVRPPRLPRPRPRPREFPRP | 0.126 |
| RRIRDRPPRLPRPRPRPFIYPRP | -0.115 |
| RRIRPRPPRLPRPRPRPYGQPRP | -0.169 |
| RRIRKRPPRLPRPRPRPDWNPRP | 0.158 |
| RRIRQRPPRLPRPRPRPRQTPRP | 0.161 |

| Sequence | shrunken log2 fold change |
| --- | --- |
| RRIRTRPPRLPRPRPRPLTHPRP | -0.0616 |
| RRIRTRPPRLPRPRPRPVSSPRP | 0.651 |
| RRIRGRPPRLPRPRPRPYFVPRP | 0.0122 |
| RRIRKRPPRLPRPRPRPRPEPRP | 0.162 |
| RRIRSRPPRLPRPRPRPPLEPRP | 0.367 |
| RRIRFRPPRLPRPRPRPLIKPRP | -0.31 |
| RRIRHRPPRLPRPRPRPSHYPRP | 0.288 |
| RRIRIRPPRLPRPRPRPKLGPRP | -0.217 |
| RRIRWRPPRLPRPRPRPNREPRP | -0.0677 |
| RRIRKRPPRLPRPRPRPDMQPRP | -0.0618 |
| RRIRARPPRLPRPRPRPGPMPRP | 0.676 |
| RRIRMRPPRLPRPRPRPEYLPRP | -0.082 |
| RRIRRRPPRLPRPRPRPWKGPRP | -0.209 |
| RRIRTRPPRLPRPRPRPCNNPRP | -0.276 |
| RRIRFRPPRLPRPRPRPMAQPRP | -0.337 |
| RRIRVRPPRLPRPRPRPDCNPRP | -0.497 |
| RRIRERPPRLPRPRPRPKHGPRP | -0.017 |
| RRIRYRPPRLPRPRPRPNQKPRP | -0.0988 |
| RRIRQRPPRLPRPRPRPVSFPRP | -0.309 |
| RRIRNRPPRLPRPRPRPFWMPRP | -0.112 |
| RRIRARPPRLPRPRPRPTDHPRP | 0.0934 |
| RRIRFRPPRLPRPRPRPFCDPRP | -0.352 |

| Sequence | shrunken log2 fold change |
| --- | --- |
| RRIRGRPPRLPRPRPRPQIKPRP | 0.324 |
| RRIRNRPPRLPRPRPRPFLPPRP | -0.354 |
| RRIRCRPPRLPRPRPRPCYFPRP | -0.779 |
| RRIRSRPPRLPRPRPRPMRGPRP | 0.944 |
| RRIRYRPPRLPRPRPRPMCGPRP | -0.17 |
| RRIRMRPPRLPRPRPRPFQDPRP | -0.235 |
| RRIRSRPPRLPRPRPRPTTDPRP | 0.0457 |
| RRIRSRPPRLPRPRPRPCQHPRP | -0.128 |
| RRIRIRPPRLPRPRPRPFCKPRP | -0.893 |
| RRIRDRPPRLPRPRPRPNIDPRP | 0.068 |
| RRIRGRPPRLPRPRPRPTSAPRP | 0.855 |
| RRIRQRPPRLPRPRPRPKECPRP | -0.0193 |
| RRIRRRPPRLPRPRPRPGMNPRP | 0.00468 |
| RRIRKRPPRLPRPRPRPCPPPRP | 0.0811 |
| RRIRMRPPRLPRPRPRPKYVPRP | -0.0144 |
| RRIRSRPPRLPRPRPRPMFVPRP | -0.0773 |
| RRIRFRPPRLPRPRPRPIGAPRP | 0.064 |
| RRIRVRPPRLPRPRPRPSCFPRP | -0.264 |
| RRIRTRPPRLPRPRPRPTHPPRP | 0.312 |
| RRIRQRPPRLPRPRPRPRVRPRP | 0.329 |
| RRIRERPPRLPRPRPRPYQRPRP | -0.876 |
| RRIRGRPPRLPRPRPRPYRCPRP | -0.00655 |

| Sequence | shrunken log2 fold change |
| --- | --- |
| RRIRPRPPRLPRPRPRPPVMPRP | 0.303 |
| RRIRIRPPRLPRPRPRPHWHPRP | -0.153 |
| RRIRARPPRLPRPRPRPAWTPRP | -0.0258 |
| RRIRSRPPRLPRPRPRPSQAPRP | -0.0295 |
| RRIRPRPPRLPRPRPRPNDDPRP | -0.188 |
| RRIRCRPPRLPRPRPRPQKRPRP | 0.0237 |
| RRIRTRPPRLPRPRPRPNDVPRP | -0.0532 |
| RRIRCRPPRLPRPRPRPVTNPRP | -0.0299 |
| RRIRWRPPRLPRPRPRPMARPRP | 0.00968 |
| RRIRHRPPRLPRPRPRPYGPPRP | -0.311 |
| RRIRDRPPRLPRPRPRPPAQPRP | 0.296 |
| RRIRARPPRLPRPRPRPCMYPRP | -0.49 |
| RRIRTRPPRLPRPRPRPANHPRP | -0.179 |
| RRIRWRPPRLPRPRPRPVKSPRP | 0.0342 |
| RRIRTRPPRLPRPRPRPMMHPRP | -0.302 |
| RRIRWRPPRLPRPRPRPHVTPRP | -0.264 |
| RRIRCRPPRLPRPRPRPSAYPRP | -0.406 |
| RRIRLRPPRLPRPRPRPPIEPRP | -0.424 |
| RRIRIRPPRLPRPRPRPLDNPRP | 0.0097 |
| RRIRKRPPRLPRPRPRPEWDPRP | 0.12 |
| RRIRPRPPRLPRPRPRPVLSPRP | 0.076 |
| RRIRNRPPRLPRPRPRPGPAPRP | 0.627 |

| Sequence | shrunken log2 fold change |
| --- | --- |
| RRIRDRPPRLPRPRPRPVVQPRP | -0.0248 |
| RRIRARPPRLPRPRPRPTAHPRP | 0.485 |
| RRIRCRPPRLPRPRPRPPMNPRP | -0.0519 |
| RRIRERPPRLPRPRPRPEMLPRP | 0.0972 |
| RRIRARPPRLPRPRPRPFDFPRP | 0.00925 |
| RRIRGRPPRLPRPRPRPFFEPRP | 0.428 |
| RRIRCRPPRLPRPRPRPEGEPRP | 3.03 |
| RRIRKRPPRLPRPRPRPCSSPRP | -0.0581 |
| RRIRMRPPRLPRPRPRPGARPRP | 1.11 |
| RRIRFRPPRLPRPRPRPLYCPRP | -0.937 |
| RRIRTRPPRLPRPRPRPGWYPRP | -0.23 |
| RRIRVRPPRLPRPRPRPHRDPRP | -0.198 |
| RRIRLRPPRLPRPRPRPHVVPRP | 0.00383 |
| RRIRYRPPRLPRPRPRPDSRPRP | -0.0156 |
| RRIRSRPPRLPRPRPRPYFAPRP | -0.645 |
| RRIRFRPPRLPRPRPRPDEHPRP | -0.0688 |
| RRIRLRPPRLPRPRPRPFMEPRP | -0.35 |
| RRIRPRPPRLPRPRPRPSVQPRP | -0.0553 |
| RRIRRRPPRLPRPRPRPQCTPRP | -0.122 |
| RRIRYRPPRLPRPRPRPYCMPRP | -0.918 |
| RRIRFRPPRLPRPRPRPAWVPRP | 0.255 |
